Results from patent US20260097138A1, “BIOMATERIAL COATED NANOSTRUCTURES FOR PHOTOACOUSTIC IMAGING AND PHOTOTHERMAL THERAPY OF TUMOR LESIONS” (OSPEDALE SAN RAFFAELE S.R.L., priority 2022, published 2026).
Values belong to the molecule of their own block, whether it stands above or below them. Starred links: 1 amine or outer side, 2 acyl side, 3 side chain; linkers in the order of their positions; H or OH if unused. Positions of bridges follow the written chain, without caps; N, C: chain ends. Non-standard residues stand in square brackets, D forms with d. Residues, ends and D or L forms follow the SMILES beside them. βAsp = O=C(O)[C@H](CC(=O)[*:2])N[*:1]; dPhg = N[C@@H](C(=O)O)c1ccccc1; Phg = N[C@H](C(=O)O)c1ccccc1

Tests used:
5637 cells [1] = experiment: Cell adhesion assay on coated microtiter plates; type: cell-based, human; details: plates coated with 250 μg/ml GNRs
Method: (§1) The plates were washed and blocked with 2% BSA in DMEM or RPMI-1640 (200 μl/well, 1 h). MB49-Luc and 5637 cells were detached with DPBS-E, washed twice with DPBS, and suspended in DMEM or RPMI-1640 containing 0.1% BSA (binding buffer-3), and added to the coated-plates (1.5×10^5 cells/well, 100 μl). After 1-2 h of incubation at 37° C., 5% CO2, the plates were washed with binding buffer-3. Adherent cells were fixed and stained with 0.5% crystal violet in 20% methanol. After washing with water, the dye was extracted from cells using a 10% acetic acid solution (140 μl/well) and the absorbance at 570 nm was measured using a microplate reader.

[2] = system: MB49-Luc derived orthotopic bladder tumor; experiment: PAI of orthotopic MB49-Luc bladder tumor after intravesical instillation; type: in vivo, mice; details: intravesical co-administration
Method: Murine orthotopic bladder tumor model: All procedures and studies involving mice were approved by the Institutional Animal Care and Use Committee of San Raffaele Scientific Institute and performed according to the prescribed guidelines (IACUC, approval number 942). Female albino C57BL/6J mice (9 weeks old, weighing about 20 g, Charles River Laboratories, Italy) were anesthetized with ketamine (80 mg/kg) and xylazine (15 mg/kg) and kept in dorsal position. Using a 24-gauge catheter, the bladder of each mouse was emptied and instilled with or without MB49-Luc cells (10^5 cells/100 μl in DPBS). Thirty minutes later the catheter was removed, and mice were allowed to recover and returned to their cage. Tumor growth was monitored by measuring the tumor volume through US imaging (see below) and in vivo bioluminescent quantification after administration of luciferin (15 mg/kg, intra peritoneum) using the non-invasive In Vivo Imaging System (IVIS, PerkinElmer, USA).
US and PAI of GNRs@Chit and GNRs@Chit-Iso4: High-resolution US and PA imaging have been acquired using the Vevo LAZR-X platform (FUJIFILM VisualSonics, Inc., Toronto, ON, Canada). The imaging platform includes a high frequency US system (Vevo 3100) combined with an Nd:YAG nano-second pulsed laser with repetition rate of 20 Hz. The linear US transducer array Mx 550D consists of 256 elements with a nominal center frequency of 40 MHz (25-55 MHz bandwidth) and a spatial resolution of 40 μm with a maximum imaging depth of 15 mm. Light from the laser is delivered to the tissue through optical fibers mounted on either side of the transducer. During volumetric US-PA acquisitions, a stepper motor is used for the linear translation of the US transducer and optical fibers along the sample. The linear stepper motor moves in steps of a minimum of 0:1 mm while capturing 2-D parallel images, for a maximum 3D range distance of 6.4 cm.
3D B mode scan was carried out for in vitro (drop) and in vivo (mouse bladder) studies. The photoacoustic spectra between 680 nm and 970 nm were scanned with a step size of 5 nm; for the in vivo studies (murine bladder) the 3D multispectral PA scans were acquired selecting PA spectral curve of tissue components melanin, deoxy- and oxy-generated blood, and GNRs; the processed wavelengths (680; 722; 764; 810; 924; 970 nm) were automatically selected from the spectral curve used to spectrally unmix the GNRs signal from other endogenous tissue chromophore signals such as oxy, deoxy hemoglobin. The algorithm reported by Luke et al was used to select these wavelengths which is ideal for separating the signal from GNRs from other endogenous absorbers.
Data analyses were conducted using the Vevo® Lab software; volumes of interest were obtained by manually drawing Volumes of Interest (VOIs) on 3D B-mode images. GNRs, melanin, oxy- and deoxy-hemoglobin content were estimated through spectral unmixing analyses of the spectroscopic data.

MB49-Luc cells [3] = experiment: Cell adhesion assay on coated microtiter plates; type: cell-based, murine; details: MB49-Luc cells; plates coated with 250 μg/ml GNRs
Method: as §1

human integrin α5β1 = target: T1, human integrin α5β1 (Homo sapiens, UniProt P05556+P08648); experiment: α5β1 integrin binding assay with HRP conjugates; details: for binding of HRP conjugate to plates coated with α5β1: no detergent in buffers, OPD substrate
T1 construct: purchased Immunological Sciences (Rome, Italy)
T1 sequence (P08648 42-894 limits assumed): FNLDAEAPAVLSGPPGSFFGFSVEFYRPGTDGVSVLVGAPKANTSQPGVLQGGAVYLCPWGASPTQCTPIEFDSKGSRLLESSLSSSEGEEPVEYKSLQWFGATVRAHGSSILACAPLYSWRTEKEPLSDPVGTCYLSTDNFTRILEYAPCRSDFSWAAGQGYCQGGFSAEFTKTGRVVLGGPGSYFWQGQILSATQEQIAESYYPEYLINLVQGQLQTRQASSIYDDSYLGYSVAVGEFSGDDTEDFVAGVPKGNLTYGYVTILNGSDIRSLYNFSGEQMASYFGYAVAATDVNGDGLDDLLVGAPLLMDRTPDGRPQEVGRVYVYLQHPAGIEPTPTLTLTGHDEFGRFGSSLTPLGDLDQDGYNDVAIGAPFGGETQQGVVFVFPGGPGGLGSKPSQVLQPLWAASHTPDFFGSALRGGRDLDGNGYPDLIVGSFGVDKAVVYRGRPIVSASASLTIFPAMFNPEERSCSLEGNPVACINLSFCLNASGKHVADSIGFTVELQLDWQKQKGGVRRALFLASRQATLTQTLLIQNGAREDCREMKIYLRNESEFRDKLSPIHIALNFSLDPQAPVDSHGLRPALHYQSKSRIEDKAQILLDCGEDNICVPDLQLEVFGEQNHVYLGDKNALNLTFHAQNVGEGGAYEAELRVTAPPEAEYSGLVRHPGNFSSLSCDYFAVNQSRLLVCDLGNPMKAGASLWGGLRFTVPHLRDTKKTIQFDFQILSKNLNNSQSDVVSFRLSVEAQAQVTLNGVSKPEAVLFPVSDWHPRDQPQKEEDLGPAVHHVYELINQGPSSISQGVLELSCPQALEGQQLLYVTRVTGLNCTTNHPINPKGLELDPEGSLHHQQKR
T1 sequence (P08648 895-1049 partner limits assumed): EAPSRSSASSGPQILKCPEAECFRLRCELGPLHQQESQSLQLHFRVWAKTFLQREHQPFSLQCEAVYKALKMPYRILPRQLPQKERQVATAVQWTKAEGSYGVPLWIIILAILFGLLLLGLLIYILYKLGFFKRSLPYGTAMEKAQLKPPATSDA
T1 sequence (P05556 21-798): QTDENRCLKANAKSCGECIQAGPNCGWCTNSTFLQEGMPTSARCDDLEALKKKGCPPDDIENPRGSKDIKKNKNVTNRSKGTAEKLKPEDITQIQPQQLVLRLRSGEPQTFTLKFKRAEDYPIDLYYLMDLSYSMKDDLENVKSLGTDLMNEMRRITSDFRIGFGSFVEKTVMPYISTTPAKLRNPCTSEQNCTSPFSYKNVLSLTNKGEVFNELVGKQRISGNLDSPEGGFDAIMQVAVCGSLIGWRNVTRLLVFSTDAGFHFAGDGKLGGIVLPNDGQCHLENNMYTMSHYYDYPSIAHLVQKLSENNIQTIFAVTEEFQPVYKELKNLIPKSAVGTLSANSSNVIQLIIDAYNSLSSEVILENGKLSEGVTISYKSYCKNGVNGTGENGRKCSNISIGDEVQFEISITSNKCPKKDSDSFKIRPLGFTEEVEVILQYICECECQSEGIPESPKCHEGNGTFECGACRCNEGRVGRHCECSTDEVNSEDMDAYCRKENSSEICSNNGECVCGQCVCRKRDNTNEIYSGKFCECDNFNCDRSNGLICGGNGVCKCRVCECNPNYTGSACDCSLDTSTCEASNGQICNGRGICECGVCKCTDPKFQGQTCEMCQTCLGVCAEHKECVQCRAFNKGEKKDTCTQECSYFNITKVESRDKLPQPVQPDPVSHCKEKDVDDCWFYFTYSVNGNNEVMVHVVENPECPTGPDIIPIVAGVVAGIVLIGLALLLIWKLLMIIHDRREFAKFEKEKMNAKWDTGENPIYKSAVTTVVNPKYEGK
Method: The final products were called Iso4-HRP and ARA-HRP. The conjugates were diluted (range 0-400 nM) in 25 mM Tris-HCl, pH 7.4, containing 150 mM sodium chloride, 1 mM magnesium chloride, 1 mM manganese chloride and 1% BSA (binding buffer-2) and added to 96-well plate polyvinyl chloride (PVC) microtiter plates (Carlo Erba, cod. FA5280100) coated with or without α5β1 (4 μg/ml) and left to incubate for 2 h. The plates were washed with 25 mM Tris-HCl, pH 7.4, containing 150 mM of sodium chloride, 1 mM of magnesium chloride, 1 mM of manganese chloride, and bound peroxidase was detected by adding a chromogenic solution (o-phenylenediamine dihydrochloride, OPD). The chromogenic reaction was stopped by adding 1 N sulfuric acid. The absorbance at 490 nm was then measured using a microtiter plate reader. The effect of human urine (from a healthy donor) on the binding of Iso4-HRP was studied as described above by mixing Iso4-HRP (300 nM final concentration) and various amounts of urine diluted in binding buffer-2.

5637 cells [4] = experiment: Binding of Iso4-Qdot / ARA-Qdot to cells (FACS, fluorescence microscopy); type: cell-based, human; details: flow cytometry and fluorescence microscopy, 2 h at 37° C.
Method: (§2) The binding of Iso4-Qdot and ARA-Qdot to MB49-Luc and 5637 cells was assessed through FACS and fluorescence microscopy experiments. FACS analysis was carried out as follows: the cells were detached with DPBS containing 5 mM EDTA pH 8.0 (DPBS-E), washed with DPBS, and suspended in 25 mM Hepes buffer, pH 7.4, containing 150 mM sodium chloride, 1 mM magnesium chloride, 1 mM manganese chloride, 1% BSA (binding buffer-1) and Iso4- or ARA-Qdot (range 30-0 nM, 5×10^5 cells/100 μl tube). After 2 h of incubation at 37° C., the cells were washed with binding buffer-1 without BSA and fixed with 4% formaldehyde. Bound fluorescence was detected using a CytoFLEX S cytofluorimeter (Beckman Coulter). The binding of Iso4-Qdot and ARA-Qdot to living 5637 cells was analyzed as follows: 5637 cells were cultured in a 96-well clear bottom black plate (5×10^4 cells/well) for 48 h, 5% CO2, 37° C. The plates were washed with binding buffer-1 and incubated with Iso4-Qdot or ARA-Qdot solution (30 nM in binding buffer-1) for 2 h at 37° C., 5% CO2. The cells were then washed with binding buffer-1, and fixed with 3% paraformaldehyde and 2% sucrose for 20 min. Bound fluorescence was acquired using the Cellomics ArrayScan XTI Studio Scan (Thermo Fischer Scientific) system.

MB49-Luc cells [5] = experiment: Binding of Iso4-Qdot / ARA-Qdot to cells (FACS); type: cell-based, murine; details: flow cytometry, 2 h at 37° C.
Method: as §2

[6] = target: mouse integrin α5 subunit on the surface of MB49-Luc cells (mouse) (UniProt P11688); experiment: flow cytometry on MB49-Luc cells, 5 µg/ml antibody
Chain of mouse integrin α5 subunit on the surface of MB49-Luc cells (mouse) (P11688 45-1053): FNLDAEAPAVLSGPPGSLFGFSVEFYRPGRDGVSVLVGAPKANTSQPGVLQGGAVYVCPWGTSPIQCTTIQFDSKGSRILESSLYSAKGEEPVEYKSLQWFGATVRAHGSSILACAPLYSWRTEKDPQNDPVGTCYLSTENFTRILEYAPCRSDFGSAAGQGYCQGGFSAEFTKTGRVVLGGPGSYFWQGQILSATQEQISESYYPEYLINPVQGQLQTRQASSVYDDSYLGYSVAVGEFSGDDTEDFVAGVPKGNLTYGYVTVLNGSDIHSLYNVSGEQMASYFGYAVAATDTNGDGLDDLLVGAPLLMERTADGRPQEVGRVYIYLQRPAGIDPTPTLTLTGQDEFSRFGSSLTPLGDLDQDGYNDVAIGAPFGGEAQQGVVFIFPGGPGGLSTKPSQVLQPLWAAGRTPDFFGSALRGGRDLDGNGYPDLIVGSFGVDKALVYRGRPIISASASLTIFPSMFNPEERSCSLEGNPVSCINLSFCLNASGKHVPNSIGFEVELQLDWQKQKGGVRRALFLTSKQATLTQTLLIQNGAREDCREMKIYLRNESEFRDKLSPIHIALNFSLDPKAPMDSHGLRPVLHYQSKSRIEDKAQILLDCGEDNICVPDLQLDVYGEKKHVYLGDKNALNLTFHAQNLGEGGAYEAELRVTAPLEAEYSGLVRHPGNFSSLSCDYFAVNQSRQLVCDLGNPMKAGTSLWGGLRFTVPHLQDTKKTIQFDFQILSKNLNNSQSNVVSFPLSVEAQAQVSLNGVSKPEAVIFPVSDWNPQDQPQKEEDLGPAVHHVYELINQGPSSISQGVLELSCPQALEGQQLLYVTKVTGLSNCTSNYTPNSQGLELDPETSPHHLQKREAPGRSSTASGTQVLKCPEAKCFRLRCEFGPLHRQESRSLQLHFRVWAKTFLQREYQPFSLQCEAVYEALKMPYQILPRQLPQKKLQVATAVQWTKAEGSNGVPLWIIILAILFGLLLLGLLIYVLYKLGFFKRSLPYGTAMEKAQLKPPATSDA

[7] = target: human integrin α5 subunit on the surface of human urothelial and bladder carcinoma cells (human) (UniProt P08648); experiment: flow cytometry on HT1376 bladder carcinoma cells, 5 µg/ml antibody
Chain of human integrin α5 subunit on the surface of human urothelial and bladder carcinoma cells (human) (P08648 42-1049): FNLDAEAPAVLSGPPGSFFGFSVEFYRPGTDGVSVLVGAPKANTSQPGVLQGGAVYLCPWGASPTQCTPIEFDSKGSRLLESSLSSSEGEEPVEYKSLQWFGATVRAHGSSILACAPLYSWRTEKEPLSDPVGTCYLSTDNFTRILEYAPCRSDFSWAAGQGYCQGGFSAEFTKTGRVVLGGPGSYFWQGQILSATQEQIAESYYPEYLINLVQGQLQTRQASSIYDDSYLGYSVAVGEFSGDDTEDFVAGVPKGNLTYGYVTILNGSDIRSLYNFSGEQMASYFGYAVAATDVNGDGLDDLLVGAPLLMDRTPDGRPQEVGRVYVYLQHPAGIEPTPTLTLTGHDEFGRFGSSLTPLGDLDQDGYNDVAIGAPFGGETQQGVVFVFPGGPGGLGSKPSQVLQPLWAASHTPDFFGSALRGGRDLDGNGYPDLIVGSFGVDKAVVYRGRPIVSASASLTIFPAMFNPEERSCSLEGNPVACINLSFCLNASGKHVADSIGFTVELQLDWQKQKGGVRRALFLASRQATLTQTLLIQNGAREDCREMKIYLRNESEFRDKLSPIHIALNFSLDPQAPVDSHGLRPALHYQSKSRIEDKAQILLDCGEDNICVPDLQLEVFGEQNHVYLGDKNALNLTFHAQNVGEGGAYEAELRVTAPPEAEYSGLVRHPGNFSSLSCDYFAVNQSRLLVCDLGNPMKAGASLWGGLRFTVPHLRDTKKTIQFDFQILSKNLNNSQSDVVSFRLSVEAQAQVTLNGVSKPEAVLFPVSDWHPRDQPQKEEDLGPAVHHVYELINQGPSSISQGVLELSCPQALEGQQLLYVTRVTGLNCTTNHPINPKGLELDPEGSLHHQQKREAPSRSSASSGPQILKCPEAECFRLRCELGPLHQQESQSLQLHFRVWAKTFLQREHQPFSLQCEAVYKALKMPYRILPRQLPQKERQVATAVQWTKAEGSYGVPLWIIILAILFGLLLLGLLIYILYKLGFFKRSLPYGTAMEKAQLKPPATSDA

[8] = target: human integrin α5 subunit on the surface of human urothelial and bladder carcinoma cells (human) (UniProt P08648); experiment: flow cytometry on HBLAK primary urothelial cells, 5 µg/ml antibody
[9] = target: human integrin α5 subunit on the surface of human urothelial and bladder carcinoma cells (human) (UniProt P08648); experiment: flow cytometry on RT4 bladder carcinoma cells, 5 µg/ml antibody
[10] = target: human integrin α5 subunit on the surface of human urothelial and bladder carcinoma cells (human) (UniProt P08648); experiment: flow cytometry on PCS-420-010 primary urothelial cells, 5 µg/ml antibody
[11] = target: human integrin α5 subunit on the surface of human urothelial and bladder carcinoma cells (human) (UniProt P08648); experiment: flow cytometry on 5637 bladder carcinoma cells, 5 µg/ml antibody
[12] = target: human integrin α5 subunit on the surface of human urothelial and bladder carcinoma cells (human) (UniProt P08648); experiment: flow cytometry on RT112 bladder carcinoma cells, 5 µg/ml antibody
[13] = target: mouse integrin β1 subunit on the surface of MB49-Luc cells (mouse) (UniProt P09055); experiment: flow cytometry on MB49-Luc cells, 5 µg/ml antibody
Chain of mouse integrin β1 subunit on the surface of MB49-Luc cells (mouse) (P09055 21-798): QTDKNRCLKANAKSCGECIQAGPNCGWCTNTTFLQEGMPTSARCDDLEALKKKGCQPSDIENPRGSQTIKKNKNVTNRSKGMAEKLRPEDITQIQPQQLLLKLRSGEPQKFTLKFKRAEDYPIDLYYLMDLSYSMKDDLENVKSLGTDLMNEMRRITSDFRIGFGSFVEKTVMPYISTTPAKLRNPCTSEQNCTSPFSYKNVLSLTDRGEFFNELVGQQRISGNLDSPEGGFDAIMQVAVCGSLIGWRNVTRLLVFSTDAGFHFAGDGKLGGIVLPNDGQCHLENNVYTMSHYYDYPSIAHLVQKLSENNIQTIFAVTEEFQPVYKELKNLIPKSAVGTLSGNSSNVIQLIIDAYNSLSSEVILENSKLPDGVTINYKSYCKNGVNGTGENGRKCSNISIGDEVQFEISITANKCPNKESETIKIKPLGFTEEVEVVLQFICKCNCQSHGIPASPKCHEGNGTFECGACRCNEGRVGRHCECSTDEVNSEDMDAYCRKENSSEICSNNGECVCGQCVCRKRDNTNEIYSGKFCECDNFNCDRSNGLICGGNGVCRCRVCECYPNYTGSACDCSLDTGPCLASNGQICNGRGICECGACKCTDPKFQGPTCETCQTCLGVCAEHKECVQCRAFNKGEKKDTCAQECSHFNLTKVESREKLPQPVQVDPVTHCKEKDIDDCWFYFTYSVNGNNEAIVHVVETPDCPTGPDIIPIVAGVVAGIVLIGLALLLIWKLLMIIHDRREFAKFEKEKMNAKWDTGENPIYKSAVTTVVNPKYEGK

[14] = target: human integrin β1 subunit on the surface of human urothelial and bladder carcinoma cells (human) (UniProt P05556); experiment: flow cytometry on HT1376 bladder carcinoma cells, 5 µg/ml antibody
Chain of human integrin β1 subunit on the surface of human urothelial and bladder carcinoma cells (human) (P05556 21-798): as the sequence (P05556 21-798) above

[15] = target: human integrin β1 subunit on the surface of human urothelial and bladder carcinoma cells (human) (UniProt P05556); experiment: flow cytometry on HBLAK primary urothelial cells, 5 µg/ml antibody
[16] = target: human integrin β1 subunit on the surface of human urothelial and bladder carcinoma cells (human) (UniProt P05556); experiment: flow cytometry on RT4 bladder carcinoma cells, 5 µg/ml antibody
[17] = target: human integrin β1 subunit on the surface of human urothelial and bladder carcinoma cells (human) (UniProt P05556); experiment: flow cytometry on PCS-420-010 primary urothelial cells, 5 µg/ml antibody
[18] = target: human integrin β1 subunit on the surface of human urothelial and bladder carcinoma cells (human) (UniProt P05556); experiment: flow cytometry on 5637 bladder carcinoma cells, 5 µg/ml antibody
[19] = target: human integrin β1 subunit on the surface of human urothelial and bladder carcinoma cells (human) (UniProt P05556); experiment: flow cytometry on RT112 bladder carcinoma cells, 5 µg/ml antibody
[20] = target: α5β1 integrin on murine MB49-Luc bladder cancer cells (mouse, UniProt P11688 45-1053; P09055 21-798); experiment: cell-based or functional assay
Chain of α5β1 integrin on murine MB49-Luc bladder cancer cells (P11688 45-1053, chain 1 of 2): as the sequence (P11688 45-1053) above
Chain of α5β1 integrin on murine MB49-Luc bladder cancer cells (P09055 21-798, chain 2 of 2): as the sequence (P09055 21-798) above

[21] = target: α5β1 integrin on human 5637 bladder cancer cells (human, UniProt P08648 42-1049; P05556 21-798); experiment: cell-based or functional assay
Chain of α5β1 integrin on human 5637 bladder cancer cells (P08648 42-1049, chain 1 of 2): as the sequence (P08648 42-1049) above
Chain of α5β1 integrin on human 5637 bladder cancer cells (P05556 21-798, chain 2 of 2): as the sequence (P05556 21-798) above

recovery of binding to α5β1 in human urine (human integrin α5β1; in 90% of urine, Iso4-HRP 300 nM): about 55%
Molecule: Iso4-HRP: Iso4 conjugated to maleimide-activated horseradish peroxidase via thiol group
binding of HRP conjugate to plates coated with α5β1 (human integrin α5β1): could bind α5β1 in a dose dependent manner

Fold (mean fluorescence intensity over isotype control) [6]: 3.79 fold
Molecule: anti-α5 integrin hamster monoclonal antibody, clone HMα5-1

Fold (median fluorescence intensity over isotype control) [7]: 4.1 fold
Fold (median fluorescence intensity over isotype control) [8]: 2.1 fold
Fold (median fluorescence intensity over isotype control) [9]: 6 fold
Fold (median fluorescence intensity over isotype control) [10]: 1.5 fold
Fold (median fluorescence intensity over isotype control) [11]: 1.9 fold
Fold (median fluorescence intensity over isotype control) [12]: 5.8 fold
Molecule: anti-α5 integrin mouse monoclonal antibody, clone P1D6

Fold (median fluorescence intensity over isotype control) [14]: 11.9 fold
Fold (median fluorescence intensity over isotype control) [15]: 0.8 fold
Fold (median fluorescence intensity over isotype control) [16]: 18.6 fold
Fold (median fluorescence intensity over isotype control) [17]: 1.2 fold
Fold (median fluorescence intensity over isotype control) [18]: 40.5 fold
Fold (median fluorescence intensity over isotype control) [19]: 38.7 fold
Molecule: anti-β1 integrin mouse monoclonal antibody, clone P5D2

Second part, the molecule before the results:

Molecule: N=C(N)NCCC[C@@H]1NC(=O)CNC(=O)C[C@@H](C(=O)O)NC(=O)[C@H](c2ccccc2)NC(=O)[C@H](CS)NC(=O)CNC1=O [Iso4, c(CphgisoDGRG), reference compound] (GRGC[Phg]D-OH; lactam N-6)
effect of excess free peptide on cell adhesion to GNRs@Chit-Iso4-coated plates (5637 cells [1]): completely inhibited cell adhesion
effect of co-administered excess free peptide on binding of GNR@Chit-Iso4 to MB49-Luc tumors [2]: reduced
effect of excess free peptide on cell adhesion to GNRs@Chit-Iso4-coated plates (MB49-Luc cells [3]): completely inhibited cell adhesion

Molecule: ARA-HRP: HRP control conjugate using the ARA peptide instead of Iso4
binding of HRP conjugate to plates coated with α5β1 (human integrin α5β1): but not ARA-HRP, could bind α5β1 in a dose dependent manner

Molecule: ARA-Qdot: c(CGARAG) peptide coupled to Qdot, negative control (cyclo(CGARAG); not fully specified (residue 1); also: coupled to Qdot605 quantum dot via Cys thiol)
binding of Qdot conjugate to cells (5637 cells [4]): but not the ARA-Qdot, bound these cells
binding of Qdot conjugate to cells (MB49-Luc cells [5]): but not the ARA-Qdot, bound these cells

Molecule: Iso4-Qdot: Iso4 coupled to fluorescent nanoparticles (Quantum Dots, Qdot) via the sulfhydryl group of the cysteine
binding of Qdot conjugate to cells (5637 cells [4]): bound these cells
binding of Qdot conjugate to cells (MB49-Luc cells [5]): bound these cells

Molecule: anti-β1 integrin hamster monoclonal antibody, clone HMβ1-1
Fold (mean fluorescence intensity over isotype control) [13]: 8.02 fold

B1: GNRs@Chit-Iso4 (gold nanorods coated with thiolated chitosan, carrying Iso4 via maleimide-PEG12-NHS) (other)
peptide: cyclo(C[dPhg][βAsp]GRG)
modifications: not fully specified (residue 1); also: Cys thiol coupled via maleimide-PEG12-NHS linker to thiolated-chitosan-coated gold nanorods
effective concentration 50 (EC50) of cell adhesion to plates coated with GNRs@Chit-Iso4 [20]: 0.73 µg/mL
effective concentration 50 (EC50) of cell adhesion to plates coated with GNRs@Chit-Iso4 [21]: 1.3 µg/mL
